Reference: publication PMC2275104 (Nucleic Acids Research, 2008)

Target: the molecule itself
Test: SEC

B1: Methanothermobacter thermautotrophicus MCM protein, wild-type (enzyme, UniProt O27798 1-666, looked up)
chain: MMKTVDKSKTLTKFEEFFSLQDYKDRVFEAIEKYPNVRSIEVDYLDLEMFDPDLADLLIEKPDDVIRAAQQAIRNIDRLRKNVDLNIRFSGISNVIPLRELRSKFIGKFVAVDGIVRKTDEIRPRIVKAVFECRGCMRHHAVTQSTNMITEPSLCSECGGRSFRLLQDESEFLDTQTLKLQEPLENLSGGEQPRQITVVLEDDLVDTLTPGDIVRVTGTLRTVRDERTKRFKNFIYGNYTEFLEQEFEELQISEEDEEKIKELAGDPNIYEKIIRSTAPSIHGYREVKEAIALQLFGGTGKELDDKTRLRGDIHILIVGDPGIGKSQMLKYVSKLAPRGIYTSGKGTSGVGLTAAAVRDEFGGWSLEAGALVLGDKGNVCVDELDKMREEDRSAIHEALEQQTISIAKAGIMATLNSRCSVLAAANPKFGRFDSYKSIAEQIDLPSTILSRFDLIFVVEDKPDEEKDRELARHILKTHKEDHMPFEIDPELLRKYIAYARKNVRPVLTDEAMQVLEDFYVSMRASAADEDSPVPITARQLEALVRLSEASAKIKLKEHVEAEDARKAIKLSQACLKQVGYDPETGKIDIDKVEGRTPKSERDKFRLLLELIKEYEDDYGGRAPTNILITEMMDRYNVSEEKVEELIRILKDKGAIFEPARGYLKIV
  stoichiometry N: 12

B2: Methanothermobacter thermautotrophicus MCM protein, G190A mutant (enzyme, UniProt O27798 1-666, looked up)
chain: MMKTVDKSKTLTKFEEFFSLQDYKDRVFEAIEKYPNVRSIEVDYLDLEMFDPDLADLLIEKPDDVIRAAQQAIRNIDRLRKNVDLNIRFSGISNVIPLRELRSKFIGKFVAVDGIVRKTDEIRPRIVKAVFECRGCMRHHAVTQSTNMITEPSLCSECGGRSFRLLQDESEFLDTQTLKLQEPLENLSGAEQPRQITVVLEDDLVDTLTPGDIVRVTGTLRTVRDERTKRFKNFIYGNYTEFLEQEFEELQISEEDEEKIKELAGDPNIYEKIIRSTAPSIHGYREVKEAIALQLFGGTGKELDDKTRLRGDIHILIVGDPGIGKSQMLKYVSKLAPRGIYTSGKGTSGVGLTAAAVRDEFGGWSLEAGALVLGDKGNVCVDELDKMREEDRSAIHEALEQQTISIAKAGIMATLNSRCSVLAAANPKFGRFDSYKSIAEQIDLPSTILSRFDLIFVVEDKPDEEKDRELARHILKTHKEDHMPFEIDPELLRKYIAYARKNVRPVLTDEAMQVLEDFYVSMRASAADEDSPVPITARQLEALVRLSEASAKIKLKEHVEAEDARKAIKLSQACLKQVGYDPETGKIDIDKVEGRTPKSERDKFRLLLELIKEYEDDYGGRAPTNILITEMMDRYNVSEEKVEELIRILKDKGAIFEPARGYLKIV
  stoichiometry N: 12

B3: Methanothermobacter thermautotrophicus MCM protein, P193G mutant (enzyme, UniProt O27798 1-666, looked up)
chain: MMKTVDKSKTLTKFEEFFSLQDYKDRVFEAIEKYPNVRSIEVDYLDLEMFDPDLADLLIEKPDDVIRAAQQAIRNIDRLRKNVDLNIRFSGISNVIPLRELRSKFIGKFVAVDGIVRKTDEIRPRIVKAVFECRGCMRHHAVTQSTNMITEPSLCSECGGRSFRLLQDESEFLDTQTLKLQEPLENLSGGEQGRQITVVLEDDLVDTLTPGDIVRVTGTLRTVRDERTKRFKNFIYGNYTEFLEQEFEELQISEEDEEKIKELAGDPNIYEKIIRSTAPSIHGYREVKEAIALQLFGGTGKELDDKTRLRGDIHILIVGDPGIGKSQMLKYVSKLAPRGIYTSGKGTSGVGLTAAAVRDEFGGWSLEAGALVLGDKGNVCVDELDKMREEDRSAIHEALEQQTISIAKAGIMATLNSRCSVLAAANPKFGRFDSYKSIAEQIDLPSTILSRFDLIFVVEDKPDEEKDRELARHILKTHKEDHMPFEIDPELLRKYIAYARKNVRPVLTDEAMQVLEDFYVSMRASAADEDSPVPITARQLEALVRLSEASAKIKLKEHVEAEDARKAIKLSQACLKQVGYDPETGKIDIDKVEGRTPKSERDKFRLLLELIKEYEDDYGGRAPTNILITEMMDRYNVSEEKVEELIRILKDKGAIFEPARGYLKIV
  stoichiometry N: 12

B4: Methanothermobacter thermautotrophicus MCM protein, L184A mutant (enzyme, UniProt O27798 1-666, looked up)
chain: MMKTVDKSKTLTKFEEFFSLQDYKDRVFEAIEKYPNVRSIEVDYLDLEMFDPDLADLLIEKPDDVIRAAQQAIRNIDRLRKNVDLNIRFSGISNVIPLRELRSKFIGKFVAVDGIVRKTDEIRPRIVKAVFECRGCMRHHAVTQSTNMITEPSLCSECGGRSFRLLQDESEFLDTQTLKLQEPAENLSGGEQPRQITVVLEDDLVDTLTPGDIVRVTGTLRTVRDERTKRFKNFIYGNYTEFLEQEFEELQISEEDEEKIKELAGDPNIYEKIIRSTAPSIHGYREVKEAIALQLFGGTGKELDDKTRLRGDIHILIVGDPGIGKSQMLKYVSKLAPRGIYTSGKGTSGVGLTAAAVRDEFGGWSLEAGALVLGDKGNVCVDELDKMREEDRSAIHEALEQQTISIAKAGIMATLNSRCSVLAAANPKFGRFDSYKSIAEQIDLPSTILSRFDLIFVVEDKPDEEKDRELARHILKTHKEDHMPFEIDPELLRKYIAYARKNVRPVLTDEAMQVLEDFYVSMRASAADEDSPVPITARQLEALVRLSEASAKIKLKEHVEAEDARKAIKLSQACLKQVGYDPETGKIDIDKVEGRTPKSERDKFRLLLELIKEYEDDYGGRAPTNILITEMMDRYNVSEEKVEELIRILKDKGAIFEPARGYLKIV
  stoichiometry N: 12

B5: Methanothermobacter thermautotrophicus MCM protein, Q181A mutant (enzyme, UniProt O27798 1-666, looked up)
chain: MMKTVDKSKTLTKFEEFFSLQDYKDRVFEAIEKYPNVRSIEVDYLDLEMFDPDLADLLIEKPDDVIRAAQQAIRNIDRLRKNVDLNIRFSGISNVIPLRELRSKFIGKFVAVDGIVRKTDEIRPRIVKAVFECRGCMRHHAVTQSTNMITEPSLCSECGGRSFRLLQDESEFLDTQTLKLAEPLENLSGGEQPRQITVVLEDDLVDTLTPGDIVRVTGTLRTVRDERTKRFKNFIYGNYTEFLEQEFEELQISEEDEEKIKELAGDPNIYEKIIRSTAPSIHGYREVKEAIALQLFGGTGKELDDKTRLRGDIHILIVGDPGIGKSQMLKYVSKLAPRGIYTSGKGTSGVGLTAAAVRDEFGGWSLEAGALVLGDKGNVCVDELDKMREEDRSAIHEALEQQTISIAKAGIMATLNSRCSVLAAANPKFGRFDSYKSIAEQIDLPSTILSRFDLIFVVEDKPDEEKDRELARHILKTHKEDHMPFEIDPELLRKYIAYARKNVRPVLTDEAMQVLEDFYVSMRASAADEDSPVPITARQLEALVRLSEASAKIKLKEHVEAEDARKAIKLSQACLKQVGYDPETGKIDIDKVEGRTPKSERDKFRLLLELIKEYEDDYGGRAPTNILITEMMDRYNVSEEKVEELIRILKDKGAIFEPARGYLKIV
  stoichiometry N: 12

B6: Methanothermobacter thermautotrophicus MCM protein, E182R mutant (enzyme, UniProt O27798 1-666, looked up)
chain: MMKTVDKSKTLTKFEEFFSLQDYKDRVFEAIEKYPNVRSIEVDYLDLEMFDPDLADLLIEKPDDVIRAAQQAIRNIDRLRKNVDLNIRFSGISNVIPLRELRSKFIGKFVAVDGIVRKTDEIRPRIVKAVFECRGCMRHHAVTQSTNMITEPSLCSECGGRSFRLLQDESEFLDTQTLKLQRPLENLSGGEQPRQITVVLEDDLVDTLTPGDIVRVTGTLRTVRDERTKRFKNFIYGNYTEFLEQEFEELQISEEDEEKIKELAGDPNIYEKIIRSTAPSIHGYREVKEAIALQLFGGTGKELDDKTRLRGDIHILIVGDPGIGKSQMLKYVSKLAPRGIYTSGKGTSGVGLTAAAVRDEFGGWSLEAGALVLGDKGNVCVDELDKMREEDRSAIHEALEQQTISIAKAGIMATLNSRCSVLAAANPKFGRFDSYKSIAEQIDLPSTILSRFDLIFVVEDKPDEEKDRELARHILKTHKEDHMPFEIDPELLRKYIAYARKNVRPVLTDEAMQVLEDFYVSMRASAADEDSPVPITARQLEALVRLSEASAKIKLKEHVEAEDARKAIKLSQACLKQVGYDPETGKIDIDKVEGRTPKSERDKFRLLLELIKEYEDDYGGRAPTNILITEMMDRYNVSEEKVEELIRILKDKGAIFEPARGYLKIV
  stoichiometry N: 12

B7: Methanothermobacter thermautotrophicus MCM protein, E185R mutant (enzyme, UniProt O27798 1-666, looked up)
chain: MMKTVDKSKTLTKFEEFFSLQDYKDRVFEAIEKYPNVRSIEVDYLDLEMFDPDLADLLIEKPDDVIRAAQQAIRNIDRLRKNVDLNIRFSGISNVIPLRELRSKFIGKFVAVDGIVRKTDEIRPRIVKAVFECRGCMRHHAVTQSTNMITEPSLCSECGGRSFRLLQDESEFLDTQTLKLQEPLRNLSGGEQPRQITVVLEDDLVDTLTPGDIVRVTGTLRTVRDERTKRFKNFIYGNYTEFLEQEFEELQISEEDEEKIKELAGDPNIYEKIIRSTAPSIHGYREVKEAIALQLFGGTGKELDDKTRLRGDIHILIVGDPGIGKSQMLKYVSKLAPRGIYTSGKGTSGVGLTAAAVRDEFGGWSLEAGALVLGDKGNVCVDELDKMREEDRSAIHEALEQQTISIAKAGIMATLNSRCSVLAAANPKFGRFDSYKSIAEQIDLPSTILSRFDLIFVVEDKPDEEKDRELARHILKTHKEDHMPFEIDPELLRKYIAYARKNVRPVLTDEAMQVLEDFYVSMRASAADEDSPVPITARQLEALVRLSEASAKIKLKEHVEAEDARKAIKLSQACLKQVGYDPETGKIDIDKVEGRTPKSERDKFRLLLELIKEYEDDYGGRAPTNILITEMMDRYNVSEEKVEELIRILKDKGAIFEPARGYLKIV
  stoichiometry N: 12
